We go through 3 molecules from article PMC4102244, “Molecular mechanism for Rabex-5 GEF activation by Rabaptin-5” (eLife, 2014).

For series [1], the target named is Rab5-Rabex-5-Rabaptin-5C21 (R3) complex (human) (UniProt P20339). In words: SAXS; purified R2, R2Δ, R3 and R3Δ complexes at 5 mg/ml in 20 mM Tris–HCl (pH 8.0), 150 mM NaCl, 293 K.
For series [2], the target named is Rabex-5-Rabaptin-5C21 (R2) complex (human) (UniProt Q15276). The description is as above.
Series [3] concerns the molecule itself. In words: crystal structure; Rabex-5Δ-Rabaptin-5C21_(2) (R2Δ) complex, 3.10 Å; hanging drop, 16°C, 2.0 M NaH2PO4/K2HPO4 (pH 7.0), 0.05% n-octyl-β-D-galactopyranoside.

For orientation: stoichiometry N means the number of molecules, sites or subunits per partner or assembly. As for “Rab5-Rabex-5-Rabaptin-5C21 (R3) complex (from UniProt P20339 15-184; Q15276 552-642)”, the stoichiometry N in series [1] worked out at 2.
Turning to “Rabex-5-Rabaptin-5C21 (R2) complex (from UniProt Q15276 552-642)”, in series [2], the stoichiometry N came out at 2.

B1: Rabaptin-5 C2-1 domain (residues 552–642) (domain or fragment, human, UniProt Q15276 552-642, looked up)
chain: ETRDQVKKLQLMLRQANDQLEKTMKDKQELEDFIKQSSEDSSHQISALVLRAQASEILLEELQQGLSQAKRDVQEQMAVLMQSREQVSEEL
notes: Rabaptin-5, human, C2-1 domain, residues 552-642; In pET-Duet1 a tag is stated only for the Rabex-5 partner; also called Rabaptin-5C21_(2)
For B1, the binding result in series [3] is given as “binds”.
